Measured values from patent US9260500B2, “Peptide and use thereof” (Takeda Pharmaceutical Company Limited, priority 2009, dated 2016).
Non-standard residues stand in square brackets, D forms with d. *: point of attachment. Arg(Me) = CNC(=N)NCCC[C@H](N)C(=O)O; 4Pal = N[C@@H](Cc1ccncc1)C(=O)O; Cha = N[C@@H](CC1CCCCC1)C(=O)O; dCha = N[C@H](CC1CCCCC1)C(=O)O; αMeP = C[C@@]1(C(=O)O)CCCN1; dIva = CC[C@@](C)(N)C(=O)O; hSer = N[C@@H](CCO)C(=O)O; Isobutyryl = CC(C)C(=O)*; Iva = CC[C@](C)(N)C(=O)O; Abu = CC[C@H](N)C(=O)O; Aib = CC(C)(N)C(=O)O

Experiments:
[1] = target: T1, human Y2 receptor (Homo sapiens, UniProt P49146); experiment: Receptor Binding Assay (RBA) for Human Y2, [125I]-PYY displacement on hY2R/CHO membrane fraction; conditions: IC50 of test compound/IC50 of PYY(3-36) (PYY(3-36) taken as 1)
T1 construct: expressed in transfected cells; membrane fraction
T1 sequence (P49146 1-381): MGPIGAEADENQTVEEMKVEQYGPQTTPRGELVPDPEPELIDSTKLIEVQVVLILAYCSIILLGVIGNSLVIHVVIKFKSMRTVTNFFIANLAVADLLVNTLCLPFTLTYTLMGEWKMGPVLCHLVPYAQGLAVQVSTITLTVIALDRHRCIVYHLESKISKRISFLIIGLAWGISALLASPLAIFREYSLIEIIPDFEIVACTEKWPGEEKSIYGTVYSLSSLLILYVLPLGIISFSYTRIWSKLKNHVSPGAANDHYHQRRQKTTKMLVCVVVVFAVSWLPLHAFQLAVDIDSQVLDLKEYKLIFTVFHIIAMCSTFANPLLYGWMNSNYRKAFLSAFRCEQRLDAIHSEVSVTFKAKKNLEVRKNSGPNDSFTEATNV
Summary of the method: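 Read-out is [125I]-PYY displacement from membranes of CHO/dhfr− cells stably transfected with human Y2R. Membranes were obtained by disrupting cells in a buffer of 10 mM NaHCO3, 5 mM EDTA and protease inhibitors.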

[2] = target: T1, human Y2 receptor; experiment: Human Y2 Receptor G Protein Binding Assay (GBA), [35S]GTPγS; assay type: biochemical; conditions: EC50 of test compound/EC50 of PYY(3-36) (PYY3-36 taken as 1), hY2R/CHO membrane fraction
Summary of the method: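 Agonism measured as [35S]GTPγS binding, read by GF/C filtration and scintillation counting after 120 min at room temperature, using human Y2 membranes at 1 μg protein/mL in pH 7.4 Tris/MgCl2/NaCl/GDP buffer. Compound serially diluted 100 μM–1 nM; EC50 normalized to PYY(3-36) (ratio = compound/PYY).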

Substance	RBA IC50 Ratio [1]	GBA EC50 Ratio [2]
Ac-[D-Pro24, Arg(Me)25, Cha27,36, Aib28,31, Lys30]-PYY(23-36) (Ac-S[dP][Arg(Me)]H[Cha][Aib]NK[Aib]TRQR[Cha]-NH2; SMILES CNC(=N)NCCC[C@H](NC(=O)[C@H]1CCCN1C(=O)[C@H](CO)NC(C)=O)C(=O)N[C@@H](Cc1c[nH]cn1)C(=O)N[C@@H](CC1CCCCC1)C(=O)NC(C)(C)C(=O)N[C@@H](CC(N)=O)C(=O)N[C@@H](CCCCN)C(=O)NC(C)(C)C(=O)N[C@H](C(=O)N[C@@H](CCCNC(=N)N)C(=O)N[C@@H](CCC(N)=O)C(=O)N[C@@H](CCCNC(=N)N)C(=O)N[C@@H](CC1CCCCC1)C(N)=O)[C@@H](C)O) [compound No. 281]	1.8	1.8
Ac-[D-Cha24, Abu26, Cha27,28,36, Aib31]-PYY(24-36) (Ac-[dCha]R[Abu][Cha][Cha]NL[Aib]TRQR[Cha]-NH2; SMILES CC[C@H](NC(=O)[C@H](CCCNC(=N)N)NC(=O)[C@@H](CC1CCCCC1)NC(C)=O)C(=O)N[C@@H](CC1CCCCC1)C(=O)N[C@@H](CC1CCCCC1)C(=O)N[C@@H](CC(N)=O)C(=O)N[C@@H](CC(C)C)C(=O)NC(C)(C)C(=O)N[C@H](C(=O)N[C@@H](CCCNC(=N)N)C(=O)N[C@@H](CCC(N)=O)C(=O)N[C@@H](CCCNC(=N)N)C(=O)N[C@@H](CC1CCCCC1)C(N)=O)[C@@H](C)O) [compound No. 84]	15	13
Ac-[D-Pro24, D-Iva26, Cha27,28,36, Aib31]-PYY(23-36) (Ac-S[dP]R[dIva][Cha][Cha]NL[Aib]TRQR[Cha]-NH2; SMILES CC[C@@](C)(NC(=O)[C@H](CCCNC(=N)N)NC(=O)[C@H]1CCCN1C(=O)[C@H](CO)NC(C)=O)C(=O)N[C@@H](CC1CCCCC1)C(=O)N[C@@H](CC1CCCCC1)C(=O)N[C@@H](CC(N)=O)C(=O)N[C@@H](CC(C)C)C(=O)NC(C)(C)C(=O)N[C@H](C(=O)N[C@@H](CCCNC(=N)N)C(=O)N[C@@H](CCC(N)=O)C(=O)N[C@@H](CCCNC(=N)N)C(=O)N[C@@H](CC1CCCCC1)C(N)=O)[C@@H](C)O) [compound No. 181]	19	13
Ac-[D-Pro24, Hse26, Cha27,36, Aib28,31]-PYY(23-36) (Ac-S[dP]R[hSer][Cha][Aib]NL[Aib]TRQR[Cha]-NH2; SMILES CC(=O)N[C@@H](CO)C(=O)N1CCC[C@@H]1C(=O)N[C@@H](CCCNC(=N)N)C(=O)N[C@@H](CCO)C(=O)N[C@@H](CC1CCCCC1)C(=O)NC(C)(C)C(=O)N[C@@H](CC(N)=O)C(=O)N[C@@H](CC(C)C)C(=O)NC(C)(C)C(=O)N[C@H](C(=O)N[C@@H](CCCNC(=N)N)C(=O)N[C@@H](CCC(N)=O)C(=O)N[C@@H](CCCNC(=N)N)C(=O)N[C@@H](CC1CCCCC1)C(N)=O)[C@@H](C)O) [compound No. 128]	11	5.4
Isobutanoyl-[Abu26,27, Cha28,36, Aib31]-PYY(25-36) (Isobutyryl-R[Abu][Abu][Cha]NL[Aib]TRQR[Cha]-NH2; SMILES CC[C@H](NC(=O)[C@H](CCCNC(=N)N)NC(=O)C(C)C)C(=O)N[C@@H](CC)C(=O)N[C@@H](CC1CCCCC1)C(=O)N[C@@H](CC(N)=O)C(=O)N[C@@H](CC(C)C)C(=O)NC(C)(C)C(=O)N[C@H](C(=O)N[C@@H](CCCNC(=N)N)C(=O)N[C@@H](CCC(N)=O)C(=O)N[C@@H](CCCNC(=N)N)C(=O)N[C@@H](CC1CCCCC1)C(N)=O)[C@@H](C)O) [compound No. 94]	31	37

The remaining lines, values ahead:

RBA IC50 Ratio [1]	GBA EC50 Ratio [2]	Substance
13	17	Ac-[Iva23, D-Pro24, Cha27,28,36, Aib31]-PYY(23-36) (Ac-[Iva][dP]RH[Cha][Cha]NL[Aib]TRQR[Cha]-NH2; SMILES CC[C@](C)(NC(C)=O)C(=O)N1CCC[C@@H]1C(=O)N[C@@H](CCCNC(=N)N)C(=O)N[C@@H](Cc1c[nH]cn1)C(=O)N[C@@H](CC1CCCCC1)C(=O)N[C@@H](CC1CCCCC1)C(=O)N[C@@H](CC(N)=O)C(=O)N[C@@H](CC(C)C)C(=O)NC(C)(C)C(=O)N[C@H](C(=O)N[C@@H](CCCNC(=N)N)C(=O)N[C@@H](CCC(N)=O)C(=O)N[C@@H](CCCNC(=N)N)C(=O)N[C@@H](CC1CCCCC1)C(N)=O)[C@@H](C)O) [compound No. 178]
0.31	1	Ac-[D-Pro24, Pya(4)26, Cha27,36, Iva28,31, Lys30]-PYY(23-36) (Ac-S[dP]R[4Pal][Cha][Iva]NK[Iva]TRQR[Cha]-NH2; SMILES CC[C@](C)(NC(=O)[C@H](CC1CCCCC1)NC(=O)[C@H](Cc1ccncc1)NC(=O)[C@H](CCCNC(=N)N)NC(=O)[C@H]1CCCN1C(=O)[C@H](CO)NC(C)=O)C(=O)N[C@@H](CC(N)=O)C(=O)N[C@@H](CCCCN)C(=O)N[C@@](C)(CC)C(=O)N[C@H](C(=O)N[C@@H](CCCNC(=N)N)C(=O)N[C@@H](CCC(N)=O)C(=O)N[C@@H](CCCNC(=N)N)C(=O)N[C@@H](CC1CCCCC1)C(N)=O)[C@@H](C)O) [compound No. 246]
8.8	5.2	Ac-[D-Pro24, Iva25, Cha27,36, Aib28,31, Lys30]-PYY(23-36) (Ac-S[dP][Iva]H[Cha][Aib]NK[Aib]TRQR[Cha]-NH2; SMILES CC[C@](C)(NC(=O)[C@H]1CCCN1C(=O)[C@H](CO)NC(C)=O)C(=O)N[C@@H](Cc1c[nH]cn1)C(=O)N[C@@H](CC1CCCCC1)C(=O)NC(C)(C)C(=O)N[C@@H](CC(N)=O)C(=O)N[C@@H](CCCCN)C(=O)NC(C)(C)C(=O)N[C@H](C(=O)N[C@@H](CCCNC(=N)N)C(=O)N[C@@H](CCC(N)=O)C(=O)N[C@@H](CCCNC(=N)N)C(=O)N[C@@H](CC1CCCCC1)C(N)=O)[C@@H](C)O) [compound No. 239]
2.8	1.3	Ac-[αMePro24, Cha27,28,36, Aib31]-PYY(23-36) (Ac-S[αMeP]RH[Cha][Cha]NL[Aib]TRQR[Cha]-NH2; SMILES CC(=O)N[C@@H](CO)C(=O)N1CCC[C@@]1(C)C(=O)N[C@@H](CCCNC(=N)N)C(=O)N[C@@H](Cc1c[nH]cn1)C(=O)N[C@@H](CC1CCCCC1)C(=O)N[C@@H](CC1CCCCC1)C(=O)N[C@@H](CC(N)=O)C(=O)N[C@@H](CC(C)C)C(=O)NC(C)(C)C(=O)N[C@H](C(=O)N[C@@H](CCCNC(=N)N)C(=O)N[C@@H](CCC(N)=O)C(=O)N[C@@H](CCCNC(=N)N)C(=O)N[C@@H](CC1CCCCC1)C(N)=O)[C@@H](C)O) [compound No. 154]
1.1	1.7	Ac-[D-Pro24, Pya(4)26, Cha27,36, Aib28,31, Lys(Me2)30]-PYY(23-36) [compound No. 264]
3.3	2.4	Piperidinocarbonyl-[Glu23, D-Pro24, Pya(4)26, Cha27,36, Aib28,31, Lys30]-PYY(23-36) (piperidinocarbonyl-E[dP]R[4Pal][Cha][Aib]NK[Aib]TRQR[Cha]-NH2) [compound No. 193]
